B1: type A IL-8 receptor (receptor, UniProt P25024 1-350, looked up)
chain: MSNITDPQMWDFDDLNFTGMPPADEDYSPCMLETETLNKYVVIIAYALVFLLSLLGNSLVMLVILYSRVGRSVTDVYLLNLALADLLFALTLPIWAASKVNGWIFGTFLCKVVSLLKEVNFYSGILLLACISVDRYLAIVHATRTLTQKRHLVKFVCLGCWGLSMNLSLPFFLFRQAYHPNNSSPVCYEVLGNDTAKWRMVLRILPHTFGFIVPLFVMLFCYGFTLRTLFKAHMGQKHRAMRVIFAVVLIFLLCWLPYNLVLLADTLMRTQVIQESCERRNNIGRALDATEILGFLHSCLNPIIYAFIGQNFRHGFLKILAMHGLVSKEFLARHRVTSYTSSSVNVSSNL
notes: whole, on cells; also called IL-8 receptor type A; CXCR1
B2: human mini TyrRS (ligand)
chain: MGDAPSPEEKLHLITRNLQEVLGEEKLKEILKERELKIYWGTATTGKPHVAYFVPMSKIADFLKAGCEVTILFADLHAYLDNMKAPWELLELRVSYYENVIKAMLESIGVPLEKLKFIKGTDYQLSKEYTLDVYRLSSVVTQHDSKKAGAEVVKQVEHPLLSGLLYPGLQALDEEYLKVDAQFGGIDQRKIFTFAEKYLPALGYSKRVHLMNPMVPGLTGSKMSSSEEESKIDLLDRKEDVKKKLKKAFCEPGNVENNGVLSFIKHVLFPLKSEFVILRDEKWGGNKTYTAYVDLEKDFAAEVVHPGDLKNSVEVALNKLLDPIREKFNTPALKKLASAAYPDPSKQKPMAKGPAKNSEPEEVILEHHHHHH
modifications: Radioiodinated (125I) where used as the labelled ligand; iodinated residues not stated. Runs as a homodimer on gel filtration.
notes: Recombinant, made in E. coli

The target of the test “human mini TyrRS” is B2. Nature of the test: radioligand binding (Scatchard) to RBL2H3 cells transfected with the type A IL-8 receptor. The protocol: Following incubation, cells were separated from unbound radioactivity as described herein.
Untransfected RBL2H3 cells express neither the type A nor type B receptors.

The target in test [1] is PMN receptor for mini TyrRS (on human PMNs) (human). Nature of the test: Scatchard analysis of ^125I-mini TyrRS binding to human PMNs at 4 C. An excerpt:
The supernatant was aspirated, and the cell sediment was resuspended using EcoLite (ICN Biomedicals, Irvine, Calif.) and analyzed in a scintillation counter.

Usually Kd stands for the concentration at which binding is half-saturated.

In the case of B1, the equilibrium dissociation constant (Kd) in the test with human mini TyrRS is 8 nM.

B2 yielded an equilibrium dissociation constant (Kd) in test [1] of 21 nM.

Values taken from patent publication US20040152079A1 (Scripps Research, published 2004).
